{
  "source": "patent US20080227735",
  "about": "“Aptamers Selected From Live Tumor Cells and the Use Thereof” (COMMISSARIAT A L'ENERGIE ATOMIQUE, published 2008)",
  "binders": {"B1": {"name": "D4 (ssRNA)", "RNA": "GGGAGACAAGAAUAAACGCUCAAGCGCGGGAAUAGUAUGGAAGGAUACGUAUACCGUGCAAUCCAGGGCAACGAACGACAGGAGGCUCACAACAGGA", "modifications": "2'-F pyrimidines (all C and U)"}, "B2": {"name": "D24 (ssRNA)", "RNA": "GGGAGACAAGAAUAAACGCUCAAGCGGUAUGUAGGGAAUAGCACUUUUUUUGCGUAUACCUACACCGCAGCGAACGACAGGAGGCUCACAACAGGA", "modifications": "2'-F pyrimidines (all C and U)"}, "B3": {"name": "D12 (ssRNA)", "RNA": "GGGAGACAAGAAUAAACGCUCAAGGGCUUCAUAAGCUACACCGGCCAACGCAGAAAUGCCUUAAGCCCGAGUUAACGACAGGAGGCUCACAACAGGA", "modifications": "2'-F pyrimidines (all C and U)"}},
  "key": {"[1]": {"target": "T1, Ret receptor tyrosine kinase C634Y (RetC634Y) on PC12 MEN 2A cells (Homo sapiens, UniProt P07949 P07949:29-1114, C634Y)", "T1 sequence (P07949 29-1114 C634Y, one chain of several)": "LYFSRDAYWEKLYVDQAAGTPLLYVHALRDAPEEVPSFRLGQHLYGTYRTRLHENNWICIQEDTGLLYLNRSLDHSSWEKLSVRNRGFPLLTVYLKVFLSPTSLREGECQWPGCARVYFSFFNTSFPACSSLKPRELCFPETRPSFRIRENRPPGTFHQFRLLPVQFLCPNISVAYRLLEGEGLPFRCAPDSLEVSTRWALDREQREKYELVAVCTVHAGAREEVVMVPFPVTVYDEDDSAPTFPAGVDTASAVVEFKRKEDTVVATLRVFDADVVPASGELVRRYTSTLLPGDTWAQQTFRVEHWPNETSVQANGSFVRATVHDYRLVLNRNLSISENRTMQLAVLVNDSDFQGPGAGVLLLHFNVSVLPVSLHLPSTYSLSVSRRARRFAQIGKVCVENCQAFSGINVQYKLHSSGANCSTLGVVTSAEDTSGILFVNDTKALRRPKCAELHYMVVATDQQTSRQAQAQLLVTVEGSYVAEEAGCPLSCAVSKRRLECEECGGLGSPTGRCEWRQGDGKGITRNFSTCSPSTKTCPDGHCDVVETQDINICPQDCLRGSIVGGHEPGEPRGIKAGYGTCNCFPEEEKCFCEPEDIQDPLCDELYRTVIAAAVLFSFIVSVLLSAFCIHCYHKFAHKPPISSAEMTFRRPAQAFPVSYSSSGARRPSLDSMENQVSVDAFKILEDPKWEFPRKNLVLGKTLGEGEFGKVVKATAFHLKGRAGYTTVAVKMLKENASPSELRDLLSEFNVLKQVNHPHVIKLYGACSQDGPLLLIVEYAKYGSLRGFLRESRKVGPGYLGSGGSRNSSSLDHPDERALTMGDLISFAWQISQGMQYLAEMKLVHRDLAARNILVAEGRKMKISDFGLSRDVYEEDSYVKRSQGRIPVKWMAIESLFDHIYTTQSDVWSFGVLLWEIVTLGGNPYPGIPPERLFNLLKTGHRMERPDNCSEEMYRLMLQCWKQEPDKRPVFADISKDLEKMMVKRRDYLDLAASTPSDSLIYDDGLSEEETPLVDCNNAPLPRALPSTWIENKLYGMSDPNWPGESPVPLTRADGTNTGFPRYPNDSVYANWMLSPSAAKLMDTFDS", "assay": "whole PC12 MEN 2A cells, RPMI, 37C, 10 min, polyinosine; 110 ± 47 x1000 targets/cell; no binding to parental PC12, NBTII or HeLa cells lacking Ret", "settings": "tags: stably transfected in rat PC12 cells; constitutive homodimer; chain copies: 2 (inferred); stem-loop with internal loops (predicted)", "procedure": "(§1) The binding of the various aptamers (or of the initial pool, as control) to the PC12 MEN 2A cells is carried out in 24-well plates (experiments carried out in triplicate), with 5′-³²P-labeled RNA. 10⁵ cells per well are incubated with various concentrations of aptamers in 200 μl of RPMI for 10 min at 37° C. in the presence of 100 μg/ml of polyinosine, as non-specific competitor. After several washes, the bound sequences are recovered in 350 μl of 0.6% SDS and the amount of radioactivity recovered is related to the number of cells by measuring the protein content in each well."}, "[2]": {"target": "T1, Ret receptor tyrosine kinase C634Y …", "assay": "whole PC12 MEN 2A cells, RPMI, 37C, 10 min, polyinosine competitor; target on cell not directly proven; 102 ± 58 x1000 targets/cell", "settings": "tags: stably transfected in rat PC12 cells; constitutive homodimer; chain copies: 2 (inferred); label: 5'-32P; stem-loop with internal loops (predicted)", "procedure": "as §1"}, "[3]": {"target": "T1, Ret receptor tyrosine kinase C634Y …", "assay": "whole PC12 MEN 2A cells, RPMI, 37C; 102 ± 25 x1000 targets/cell; competes with D4 (p188)", "settings": "tags: stably transfected in rat PC12 cells; constitutive homodimer; chain copies: 2 (inferred); label: 5'-32P", "procedure": "as §1"}},
  "data": [
    {"binder": "B1", "values": [
      {"measurement": "Kd", "setting": "[1]", "value": 35, "unit": "nM"}
    ]},
    {"binder": "B2", "values": [
      {"measurement": "Kd", "setting": "[2]", "value": 32, "unit": "nM"}
    ]},
    {"binder": "B3", "values": [
      {"measurement": "Kd", "setting": "[3]", "value": 67, "unit": "nM"}
    ]}
  ]
}
